In series [1] the target is T1, cognate pT peptide (Rad9-pT) (Saccharomyces cerevisiae, UniProt P14737).
T1 construct: host or cells: chemical synthesis
The experiment in a line: FTS assay, Tm shift in the presence of the cognate pT peptide. It is filed as binding, yeast. The protocol:
(§1) The FTS assay was performed on a MxPro-Mx3005P instrument (Stratagene) following the protocol described by Giuliani et al (Giuliani et al. (2008) Biochemistry 47, 13974-84). It is a real-time assay using the SYBR® Green experiment setting with dissociation curve. The default FRROX filter set was used with an excitation wavelength of 492 nm and emission wavelength of 610 nm. FHA1 domains diluted with PBS to 2× final concentration (i.e. 2 μM and 8 μM) were mixed with 10×SYPRO® Orange protein gel stain (Invitrogen; 5000× concentration in DMSO) to give a final dye concentration of 10×. Then, to the protein wells only, 10 μL of the dye+protein mixture was added along with 10 μL of 1×PBS buffer. In other wells, 10 μL of either the pT peptide or its non-phosphorylated form (diluted to 2× final concentration with PBS, i.e. 100 μM and 500 μM) was added to 10 μL of dye+protein mixture. The final reaction volume was 20 μL with final concentrations of 1 μM or 4 μM of FHA1 domains, 50 μM or 250 μM of pT and non-phosphorylated peptides and 5× final concentration of the SYPRO® Orange. The assay was performed in duplicate in 96 well white PCR plates (BIO-Rad) covered with optically clear Microseal® ‘B’ Film (Bio-Rad) and heated from 25° C. to 95° C. and the melting curve was obtained with fluorescence (R) values plotted on the Y-axis and increasing temperature (° C.) on the X-axis. The mid-point of the curve gives the melting temperature (Tm), which shifts to a higher temperature in the presence of the pT peptide.
(§2) The Tm values of FHA1 variants were determined by FTS assay (Giuliani et al. (2008) Biochemistry 47, 13974-84). A representative Tm curve for the G2 variant at 1 μM concentration is shown (solid squares), alone and in the presence of the pT peptide (FIG. 11). […] The Tm values of the thermally stable variants (along with WT and D2 variant) at 1 μM and 4 μM concentration, along with the Tm shift in the presence of two different concentrations (50 μM and 250 μM) of the pT peptide, are listed in Table S3.

The nature of series [2]: Fluorescence-based thermal shift (FTS) assay, melting temperature. It counts as physicochemical. As to conditions: for thermal stability compared with the starting D2 domain: isolated after selection with library heated to 50° C.; for Tm (° C.): mid-point of melting curve. The protocol: as §1
To evaluate the thermal stability of the D2 variant, phage particles displaying the D2 variant were heated at various temperatures (30° C., 37° C., 50° C., 60° C., 70° C., 80° C., and 95° C.) prior to incubation with the cognate pT peptide (Rad9-pT) and the non-phosphorylated form of the same peptide (Rad9-T). […] (FIG. 8). The D2 variant (purified six-his tagged protein) was mixed with SYPRO orange dye with or without the Rad9-pT-containing peptide and heated from 25° C. to 95° C. in a real-time PCR experiment known as the Fluorescence-based thermal shift (FTS) assay^36. In this assay, initially, the fluorescence of SYPRO orange dye is quenched in the aqueous environment of a folded protein, but as the protein starts to unfold upon heating, the dye interacts with the hydrophobic core of the protein and its fluorescence increases. Therefore, an increase in fluorescence of the dye is directly proportional to protein unfolding, until a temperature (referred to as Tm here) is reached at which the dye fluorescence decreases due to aggregation and precipitation of the protein. The melting temperature (Tm) of the D2 variant was determined by fluorescence-based thermal shift (FTS) assay to be approximately 5° C. lower than the Tm of the WT FHA1 domain. To improve the thermal stability of the D2 variant, affinity selection was carried out by heating the phage library displaying D2 variants at 50° C. prior to incubation with the pT peptide ligand to favor the isolation of variants that remained folded and functional above 50° C.
as §2
The Tm (temperature at which 50% of the protein is unfolded) of the protein domain variants was determined by a fluorescence-based thermal shift assay (Giuliani et al. (2008) Biochemistry 47, 13974-84). The proteins were mixed with SYPRO orange dye, and heated from 25° C. to 95° C. on a real-time thermocycler. […]

For series [3], the target named is T2, pT peptide (Rad 9-pT: SLEVpTEADATFYAKK) (Saccharomyces cerevisiae, UniProt P14737).
T2 construct: host or cells: chemical synthesis
The experiment in a line: Isothermal titration calorimetry (ITC). It counts as binding, yeast. As to conditions: in solution by ITC; FHA1 domain 35 μM in cell. The protocol:
A fixed amount (10 μL) of the pT peptide (Rad 9-pT: SLEVpTEADATFYAKK (SEQ ID NO:9); 500 μM) was injected from the syringe into the sample cell containing the FHA1 domain (35 μM). […] Each measurement was repeated three times.
The affinity of the G2 variant and the WT FHA1 domain to the pT peptide (SLEVpTEADATFYAKK) (SEQ ID NO:9) was determined by ITC (FIG. 12). The sample cell contained the purified FHA1 domains (35 μM) and the injection syringe was filled with the pT peptide (350 μM). […] The FHA1 domains bound to the pT peptide with a stoichiometry of 1:1, and the ITC graph was fitted by the single site binding model.
Background: In ITC the heat of successive injections is recorded.

Series [4] relates to non-phosphorylated form of the same peptide. The experiment in a line: FTS assay, Tm shift in the presence of the non-phosphorylated peptide. It is filed as binding, yeast. The protocol:
as §1, with “The final reaction volume was 20 μL with final concentrations of 1 μM or 4 μM of FHA1 domains, 50 μM or 250 μM of pT and non-phosphorylated peptides and 5× final concentration of the SYPRO® Orange.” left out, “The mid-point of the curve gives the melting temperature (Tm), which shifts to a higher temperature in the presence of the pT peptide.” left out
The Tm values of FHA1 variants were determined by FTS assay (Giuliani et al. (2008) Biochemistry 47, 13974-84). […]

Series [5] deals with T3, Rad9-pT peptide (Saccharomyces cerevisiae, UniProt P14737).
T3 construct: host or cells: chemical synthesis
Put plainly: Phage ELISA of phage-displayed FHA1 domains. It counts as binding, yeast. To be noted: M13 protein III fusion, DsbA signal sequence. On the procedure: To amplify the phage particles displaying the recombinant FHA1 variants, TG1 bacterial cells (5 mL; Stratagene) harboring the phagemid DNA were infected at mid-log (OD600nm=0.5-0.6) with M13K07 helper phage (New England Biolabs) at a multiplicity of infection (MOI) of 20 for 1 h at 37° C. at 150 rpm. Infected cells were centrifuged, and the pellet was resuspended in fresh Luria Bertani medium (LB: 10 g Tryptone, 5 g Yeast extract, and 10 g NaCl per liter) supplemented with 50 μg/mL carbenicillin and 50 μg/ml kanamycin, and phage were amplified overnight at 30° C. at 250 rpm. All of the phage ELISA steps were performed at room temperature. Biotinylated peptides (100 μL, 5 μg/mL) were immobilized on Nunc MaxiSorp flat-bottom 96 well plates (Thermo Fisher Scientific) via NeutrAvidin™ Biotin binding protein (100 μL, 10 μg/mL; Thermo Fisher Scientific) and blocked with 2% skim milk in 1×PBS (200 μL per well). After washing with Phosphate Buffered Saline (PBS: 0.14 M Sodium Chloride, 0.003 M Potassium Chloride, 0.002 M Potassium Phosphate, and 0.01 M Sodium Phosphate), the wells were incubated with the phage supernatant (100 μL of phage diluted 1:2 with PBS containing 0.1% Tween 20 (PBST)) for 1 h and washed three times with PBST. The binding phage were detected using anti-M13 antibody conjugated to horse radish peroxidase (HRP) (GE Healthcare) diluted 1:5000 with PBST. After washing away the unbound antibody, the chromogenic substrate for HRP; 2,2′-Azinobis (3-ethylbenzothiazoline-6-Sulfonic Acid) diammonium salt (Thermo Fisher Scientific), supplemented with hydrogen peroxide was added (100 μL per well), and the absorbance of the green colored complex was measured at 405 nm on POLARstar OPTIMA microtiter plate reader (BMG Labtech).

For series [6], the target named is T3, Rad9-pT peptide. Put plainly: ELISA of GST fusions of FHA1 domains. To be noted: expressed in bacterial cytoplasm as GST fusion. It is filed as binding, yeast. On the procedure:
For production of FHA1-GST fusion protein, BL21 DE3 cells (10 mL; Stratagene) harboring the expression vector was grown overnight at 30° C. using the Overnight Express™ Autoinduction System 1 (Novagen). The next day, cells were lysed using BugBuster® 10× Protein Extraction Reagent (Novagen) following the manufacturer's instructions. Cell lysate (100 μL diluted 1:5 with PBST) was incubated with the biotinylated peptides as described above and detected using anti-GST antibody conjugated to HRP (diluted 1:10,000 with PBST; GE Healthcare).
(In an ELISA, binding on a coated surface is turned into a signal by an enzyme label.)

The mark [7] stands for this setting: 250 μM pT peptide, protein 1 μM.
The mark [8] stands for this setting: 250 μM pT peptide, protein 4 μM.

Where “and” joins values, the source holds several entries; their conditions need not be identical. Equal entries are not always repeated. Entries after “also recorded” stand apart in the source; their conditions may differ.

B1: G2: thermally stable FHA1 variant of D2, mutations T15A, L48F, N121Y (protein)
chain: MENITQPTQQSTQAAQRFLIEKFSQEQIGENIVFRVISTTGQIPIRDFSADISQVLKEKRSIKKVWTFGRNPACDYHLGNISRLSNKHFQILLGEDGNLLLNDISTNGTWLNGQKVEKNSYQLLSQGDEITVGVGVESDILSLVIFINDKFKQSLEQNKVDRIRSNLKNTHHHHHH
Broadly, the Kd is the constant that tells how readily two partners part at equilibrium. A low value points to higher affinity. For B1, the “Tm shift (° C.) in the presence of pT peptide” value amounted to 1.2 °C in series [1] (50 μM pT peptide, protein 1 μM); 0.5 °C in series [1] (50 μM pT peptide, protein 4 μM); 2.75 °C in series [1] (setting [7]); 2.5 °C in series [1] (setting [8]). Also, the “thermal stability compared with the starting D2 domain” value in series [2] is “more thermally stable”. Further, the “Tm (° C.)” value is 73.75 °C in series [2] (protein concentration 1 μM) and 74.9 °C in series [2] (protein concentration 4 μM). Moreover, the Kd in series [3] was ~890 nM and 890 nM. Also, in series [4], the “shift in the Tm” value was “No shift”.

B2: A12: thermally stable FHA1 variant of D2, mutations C74S, G94D, E129V, N158I (protein)
chain: MENITQPTQQSTQATQRFLIEKFSQEQIGENIVFRVISTTGQIPIRDLSADISQVLKEKRSIKKVWTFGRNPASDYHLGNISRLSNKHFQILLDEDGNLLLNDISTNGTWLNGQKVEKNSNQLLSQGDVITVGVGVESDILSLVIFINDKFKQSLEQIKVDRIRSNLKNTHHHHHH
For B2, the “Tm shift (° C.) in the presence of pT peptide” value came to 1.25 °C in series [1] (50 μM pT peptide, protein 1 μM); 1 °C in series [1] (50 μM pT peptide, protein 4 μM); 2 °C in series [1] (setting [7]); 2.4 °C in series [1] (setting [8]). Also, the “thermal stability compared with the starting D2 domain” value in series [2] is “more thermally stable”. Further, the “Tm (° C.)” value in series [2] (protein concentration 1 μM) was 66 °C; in series [2] (protein concentration 4 μM), 64 °C.

B3: 3C-3S: FHA1 domain variant with three cysteines mutated to serine (C34S, C38S, C154S) (protein)
chain: MENITQPTQQSTQATQRFLIEKFSQEQIGENIVSRVISTTGQIPIRDLSADISQVLKEKRSIKKVWTFGRNPACDYHLGNISRLSNKHFQILLGEDGNLLLNDISTNGTWLNGQKVEKNSNQLLSQGDEITVGVGVESDILSLVIFINDKFKQSLEQNKVDRIRSNLKNT
modifications: left off: a dimerising Fc or GST; large carriers; small tags and cut ends
In the case of B3, the “binding to Rad9-pT peptide when phage-displayed” value with Rad9-pT peptide [5] is on record as “did not bind; also recorded: remained non-functional”. In the series with Rad9-pT peptide [6], the “binding of GST fusion to Rad9-pT peptide” value was “bound specifically; also recorded: showed specific binding”.

B4: 4C-4S: FHA1 variant with all four cysteines mutated to serines (protein)
chain: MENITQPTQQSTQATQRFLIEKFSQEQIGENIVSRVISTTGQIPIRDLSADISQVLKEKRSIKKVWTFGRNPASDYHLGNISRLSNKHFQILLGEDGNLLLNDISTNGTWLNGQKVEKNSNQLLSQGDEITVGVGVESDILSLVIFINDKFKQSLEQNKVDRIRSNLKNT
modifications: left off: a dimerising Fc or GST; large carriers; small tags and cut ends
notes: FHA1 variant with all four cysteines mutated to serines
B4: the “binding to Rad9-pT peptide when phage-displayed” value in the series with Rad9-pT peptide [5] is “did not bind; also recorded: remained non-functional”. In addition, the “binding of GST fusion to Rad9-pT peptide” value with Rad9-pT peptide [6] is recorded as “bound specifically; also recorded: showed specific binding”.
